Source: patent publication US7407939B2, “Protein kinase inhibitors comprising ATP mimetics conjugated to peptides or peptidomimetics” (CureGenics Ltd., priority 2001, dated 2008)
Where no end group is shown, it is not given here. Side-chain parts run from the residue outwards. [ ]: non-standard residue; d: D form. The star is where a group is joined. SO2‑IQ = 5-aminoethylsulfoneamide isoquinoline, O=S(=O)(NCCN*)c1cccc2cnccc12; X1 = 5‑aminoethylsulfonamide isoquinoline, O=S(=O)(NCCN*)c1cccc2cnccc12; hLeu = CC(C)CC[C@H](N)C(=O)O; GltNH2 = not defined here; Nle = CCCC[C@H](N)C(=O)O; Orn = NCCC[C@H](N)C(=O)O; Dab = NCC[C@H](N)C(=O)O; Nva = CCC[C@H](N)C(=O)O; Abu = CC[C@H](N)C(=O)O; Dap = NC[C@H](N)C(=O)O; Ph2 = not defined here; GlyNH2 = aminoglycine

Molecular target: T1, PKB (Homo sapiens, UniProt P31749)
T1 construct: His; HA; made in house
T1 sequence (P31749 whole entry, species assumed): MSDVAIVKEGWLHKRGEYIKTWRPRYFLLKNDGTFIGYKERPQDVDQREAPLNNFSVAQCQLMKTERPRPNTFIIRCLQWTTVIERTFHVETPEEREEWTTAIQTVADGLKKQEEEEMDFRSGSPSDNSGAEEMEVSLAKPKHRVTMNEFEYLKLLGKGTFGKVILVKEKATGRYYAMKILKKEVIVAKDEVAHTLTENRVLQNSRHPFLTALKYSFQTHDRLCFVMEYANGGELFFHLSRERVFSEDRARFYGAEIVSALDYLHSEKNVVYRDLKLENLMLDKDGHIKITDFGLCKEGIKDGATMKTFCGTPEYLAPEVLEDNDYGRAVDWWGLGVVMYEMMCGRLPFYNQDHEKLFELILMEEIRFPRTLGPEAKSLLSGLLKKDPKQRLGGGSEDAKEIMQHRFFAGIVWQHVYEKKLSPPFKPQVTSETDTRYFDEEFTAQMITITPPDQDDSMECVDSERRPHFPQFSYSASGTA
Assay: PKB in vitro kinase activity assay (soluble His-HA-PKB / SPA bead screening)
Assay type: biochemical
Design: % Inhibition PKB I / % Inhibition PKB II: concentration or dose not given beside the values
Settings: for % Inhibition PKB I / % Inhibition PKB II: plate screening, peptide moiety alone; for PKB-kinase (spa) Assay 1, % inhibition of kinase activity / PKB-kinase (spa) Assay 2, % inhibition of kinase activity: 1 μM compound concentration

IC50 (chimeric PTR compounds (peptide conjugated to isoquinoline small molecule), read-out: PKB IC50) | % Inhibition PKB I | % Inhibition PKB II | PKB-kinase (spa) Assay 1, % inhibition of kinase activity | PKB-kinase (spa) Assay 2, % inhibition of kinase activity | Substance
– | 62% | – | – | – | 60002-50 (RPRTSA[hLeu]) [Compound 60002-50]
– | 42% | 42% | – | – | 60006-16A (RPR[Nva][GlyNH2][GltNH2][hLeu]; reading uncertain) [Compound 60006-16A]
– | – | – | 46% | 26% | 60020-5: Arg-Pro-Arg-Dap-Glu(5-aminoethylsulfonamide isoquinoline)-Ala-Phe (RPR[Dap]E(X1)AF)
– | – | – | 32% | 14% | 60020-6: Arg-Pro-Arg-Dap-Glu(5-aminoethylsulfonamide isoquinoline)-Ala-Hol (RPR[Dap]E(X1)A[hLeu])
– | – | – | 18% | 0% | 60020-8: Arg-Pro-Arg-Dap-Glu(5-aminoethylsulfonamide isoquinoline)-Nva-Hol (RPR[Dap]E(X1)[Nva][hLeu])
– | – | – | 31% | 44% | 60020-15: Arg-Pro-Arg-Orn-Glu(5-aminoethylsulfonamide isoquinoline)-Nva-Phe (RPR[Orn]E(X1)[Nva]F)
– | – | – | 18% | 28% | 60020-18: Arg-Pro-Arg-Abu-Glu(5-aminoethylsulfonamide isoquinoline)-Dab-Hol (RPR[Abu]E(X1)[Dab][hLeu])
– | – | – | 11% | 15% | 60020-20: Arg-Pro-Arg-Abu-Glu(5-aminoethylsulfonamide isoquinoline)-Orn-Hol (RPR[Abu]E(X1)[Orn][hLeu])
– | – | – | −2% | 6% | 60020-21: Arg-Pro-Arg-Abu-Glu(5-aminoethylsulfonamide isoquinoline)-Ala-Phe (RPR[Abu]E(X1)AF)
– | – | – | −3% | −8% | 60020-23: Arg-Pro-Arg-Abu-Glu(5-aminoethylsulfonamide isoquinoline)-Nva-Phe (RPR[Abu]E(X1)[Nva]F)
– | – | – | 63% | 25% | 60020-27: Arg-Pro-Arg-Nle-Glu(5-aminoethylsulfonamide isoquinoline)-Orn-Phe (RPR[Nle]E(X1)[Orn]F)
– | – | – | 27% | 31% | 60020-28: Arg-Pro-Arg-Nle-Glu(5-aminoethylsulfonamide isoquinoline)-Orn-Hol (RPR[Nle]E(X1)[Orn][hLeu])
– | – | – | 19% | 39% | 60020-29: Arg-Pro-Arg-Nle-Glu(5-aminoethylsulfonamide isoquinoline)-Ala-Phe (RPR[Nle]E(X1)AF)
– | – | – | 14% | 38% | 60020-30: Arg-Pro-Arg-Nle-Glu(5-aminoethylsulfonamide isoquinoline)-Ala-Hol (RPR[Nle]E(X1)A[hLeu])
– | – | – | 12% | 32% | 60020-32: Arg-Pro-Arg-Nle-Glu(5-aminoethylsulfonamide isoquinoline)-Nva-Hol (RPR[Nle]E(X1)[Nva][hLeu])
– | – | – | 17% | 16% | 60020-39: Arg-Pro-Arg-Dap-Glu(Gly-5-aminoethylsulfonamide isoquinoline)-Nva-Phe (RPR[Dap]E([Gly-X1])[Nva]F)
– | – | – | 36% | 22% | 60020-40: Arg-Pro-Arg-Dap-Glu(Gly-5-aminoethylsulfonamide isoquinoline)-Nva-Hol (RPR[Dap]E([Gly-X1])[Nva][hLeu])
– | – | – | 21% | 33% | 60020-47: Arg-Pro-Arg-Orn-Glu(Gly-5-aminoethylsulfonamide isoquinoline)-Nva-Phe (RPR[Orn]E([Gly-X1])[Nva]F)
– | – | – | 10% | 22% | 60020-48: Arg-Pro-Arg-Orn-Glu(Gly-5-aminoethylsulfonamide isoquinoline)-Nva-Hol (RPR[Orn]E([Gly-X1])[Nva][hLeu])
– | – | – | 20% | 40% | 60020-55: Arg-Pro-Arg-Abu-Glu(Gly-5-aminoethylsulfonamide isoquinoline)-Nva-Phe (RPR[Abu]E([Gly-X1])[Nva]F)
– | – | – | 20% | 47% | 60020-56: Arg-Pro-Arg-Abu-Glu(Gly-5-aminoethylsulfonamide isoquinoline)-Nva-Hol (RPR[Abu]E([Gly-X1])[Nva][hLeu])
– | – | – | 29% | 40% | 60020-61: Arg-Pro-Arg-Nle-Glu(Gly-5-aminoethylsulfonamide isoquinoline)-Ala-Phe (RPR[Nle]E([Gly-X1])AF)
– | – | – | 17% | 19% | 60020-63: Arg-Pro-Arg-Nle-Glu(Gly-5-aminoethylsulfonamide isoquinoline)-Nva-Phe (RPR[Nle]E([Gly-X1])[Nva]F)

Continued, substance first:

Substance | IC50 (chimeric PTR compounds (peptide conjugated to isoquinoline small molecule), read-out: PKB IC50) | % Inhibition PKB I | % Inhibition PKB II | PKB-kinase (spa) Assay 1, % inhibition of kinase activity | PKB-kinase (spa) Assay 2, % inhibition of kinase activity
6106 (RPRT[Dap](SO2‑IQ)SF) [compound 6106] | 10 µM | – | – | – | –
60006-7B (RPR[Nva][GlyNH2][Abu][hLeu]) [Compound 60006-7B] | – | 53% | 47% | – | –
60006-11B (RPR[Nva][GlyNH2][Dap][Ph2]; reading uncertain) [Compound 60006-11B] | – | 51% | 44% | – | –
60020-4: Arg-Pro-Arg-Dap-Glu(5-aminoethylsulfonamide isoquinoline)-Orn-Hol (RPR[Dap]E(X1)[Orn][hLeu]) | – | – | – | 34% | 53%
60020-12: Arg-Pro-Arg-Orn-Glu(5-aminoethylsulfonamide isoquinoline)-Orn-Hol (RPR[Orn]E(X1)[Orn][hLeu]) | – | – | – | 23% | 3%
60020-13: Arg-Pro-Arg-Orn-Glu(5-aminoethylsulfonamide isoquinoline)-Ala-Phe (RPR[Orn]E(X1)AF) | – | – | – | 36% | 29%
60020-14: Arg-Pro-Arg-Orn-Glu(5-aminoethylsulfonamide isoquinoline)-Ala-Hol (RPR[Orn]E(X1)A[hLeu]) | – | – | – | 26% | 31%
60020-16: Arg-Pro-Arg-Orn-Glu(5-aminoethylsulfonamide isoquinoline)-Nva-Hol (RPR[Orn]E(X1)[Nva][hLeu]) | – | – | – | 5% | 37%
60020-17: Arg-Pro-Arg-Abu-Glu(5-aminoethylsulfonamide isoquinoline)-Dab-Phe (RPR[Abu]E(X1)[Dab]F) | – | – | – | 34% | 38%
60020-19: Arg-Pro-Arg-Abu-Glu(5-aminoethylsulfonamide isoquinoline)-Orn-Phe (RPR[Abu]E(X1)[Orn]F) | – | – | – | 32% | 26%
60020-22: Arg-Pro-Arg-Abu-Glu(5-aminoethylsulfonamide isoquinoline)-Ala-Hol (RPR[Abu]E(X1)A[hLeu]) | – | – | – | −5% | −2%
60020-24: Arg-Pro-Arg-Abu-Glu(5-aminoethylsulfonamide isoquinoline)-Nva-Hol (RPR[Abu]E(X1)[Nva][hLeu]) | – | – | – | −17% | −12%
60020-26: Arg-Pro-Arg-Nle-Glu(5-aminoethylsulfonamide isoquinoline)-Dab-Hol (RPR[Nle]E(X1)[Dab][hLeu]) | – | – | – | 17% | 18%
60020-45: Arg-Pro-Arg-Orn-Glu(Gly-5-aminoethylsulfonamide isoquinoline)-Ala-Phe (RPR[Orn]E([Gly-X1])AF) | – | – | – | 29% | 53%
60020-46: Arg-Pro-Arg-Orn-Glu(Gly-5-aminoethylsulfonamide isoquinoline)-Ala-Hol (RPR[Orn]E([Gly-X1])A[hLeu]) | – | – | – | 37% | 57%
60020-53: Arg-Pro-Arg-Abu-Glu(Gly-5-aminoethylsulfonamide isoquinoline)-Ala-Phe (RPR[Abu]E([Gly-X1])AF) | – | – | – | 20% | 13%
60020-54: Arg-Pro-Arg-Abu-Glu(Gly-5-aminoethylsulfonamide isoquinoline)-Ala-Hol (RPR[Abu]E([Gly-X1])A[hLeu]) | – | – | – | 34% | 45%
60020-62: Arg-Pro-Arg-Nle-Glu(Gly-5-aminoethylsulfonamide isoquinoline)-Ala-Hol (RPR[Nle]E([Gly-X1])A[hLeu]) | – | – | – | 29% | 38%
60020-64: Arg-Pro-Arg-Nle-Glu(Gly-5-aminoethylsulfonamide isoquinoline)-Nva-Hol (RPR[Nle]E([Gly-X1])[Nva][hLeu]) | – | – | – | 25% | 26%
